Test results from publication PMC12838881, “Engineering Single-Chain Antibody Fragment (scFv) Variants Targeting A Disintegrin and Metalloproteinase-17 (ADAM-17)” (Biomolecules, 2025).

B1: SynAb-A6 scFv displayed on yeast (scFv, V domains shown)
VH: EVQLVQSGAEVKKPGESLKISCKGSGYSFTSYWIGWVRQMPGKGLEWMGIIYPGDSDTRYSPSFQGQVTISADKSISTAYLQWSSLKASDTAVYYCARTDLHVHVYYFDYWGQGTLVTVSS
VL: not shown
notes: light chain variable domain as printed; glycine-rich peptide linker between VL and VH; heavy chain variable domain as printed; CDR-H3 TDLHVHVYY; VL-VH orientation; source: yeast surface display, S. cerevisiae RJY100, pCTCON2 vector; not shown: Aga2p, N-terminal, kept
B2: SynAb-A9 scFv displayed on yeast (scFv, V domains shown)
VH: QLQLQESGPGLVKPSETLSLTCTVSGGSISSSSYYWGWIRQPPGKGLEWIGSIYYSGSTYYNPSLKSRVTISVDTSKNQFSLKLSSVTAADTAVYYCARPGGYYDMEYLYFDYWGQGTLVTVSS
VL: not shown
notes: light chain variable domain as printed; glycine-rich peptide linker between VL and VH; heavy chain variable domain as printed; CDR-H3 PGGYYDMEYLY; VL-VH orientation; source: yeast surface display, S. cerevisiae RJY100, pCTCON2 vector; not shown: Aga2p, N-terminal, kept
B3: SynAb-A7 scFv displayed on yeast (scFv, V domains shown)
VH: EVQLVQSGAEVKKPGESLKISCKGSGYSFTSYWIGWVRQMPGKGLEWMGIIYPGDSDTRYSPSFQGQVTISADKSISTAYLQWSSLKASDTAVYYCARKKEYYSRFDYWGQGTLVTVSS
VL: not shown
notes: light chain variable domain as printed; glycine-rich peptide linker between VL and VH; heavy chain variable domain as printed; CDR-H3 KKEYYSR; VL-VH orientation; source: yeast surface display, S. cerevisiae RJY100, pCTCON2 vector; not shown: Aga2p, N-terminal, kept

Biological target: T1, a disintegrin and metalloproteinase-17 catalytic domain (6xHis-ADAM-17cd) (UniProt P78536)
T1 construct: ADAM-17 (TACE), catalytic domain; also called TACE; tumor necrosis factor-α-converting enzyme; source: bought: Enzo Life Sciences
T1 sequence (P78536 215-474): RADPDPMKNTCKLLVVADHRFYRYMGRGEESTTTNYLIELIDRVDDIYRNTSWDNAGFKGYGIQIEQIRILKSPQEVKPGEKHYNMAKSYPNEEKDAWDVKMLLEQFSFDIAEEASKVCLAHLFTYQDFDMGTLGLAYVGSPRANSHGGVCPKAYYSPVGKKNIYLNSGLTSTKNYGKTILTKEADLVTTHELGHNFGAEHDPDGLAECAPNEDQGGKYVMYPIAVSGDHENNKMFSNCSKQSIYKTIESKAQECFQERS
Assay: flow cytometry on cells; scFv variants or TIMP-3 displayed on yeast; soluble 6xHis-ADAM-17cd or MMP-9cd at 100 nM (legend and results; the methods say 150 nM); PBSA pH 7.4; binding read with anti-6xHis Alexa Fluor 647, expression with anti-c-Myc and Alexa Fluor 488; median binding normalised to expression
Settings: one partner purified

Binder | binding result | binding per expression signal, fold of TIMP-3
B1 | binds | –
B2 | binds | –
B3 | – | ≤ 3 fold
